Assay results as given in US20140004107A1.

Biological target: human ST2 on human primary cells (human) (UniProt Q01638)
Assay: cell-based or functional assay

Sequence of human ST2 on human primary cells (human) (Q01638 19-556 A78X): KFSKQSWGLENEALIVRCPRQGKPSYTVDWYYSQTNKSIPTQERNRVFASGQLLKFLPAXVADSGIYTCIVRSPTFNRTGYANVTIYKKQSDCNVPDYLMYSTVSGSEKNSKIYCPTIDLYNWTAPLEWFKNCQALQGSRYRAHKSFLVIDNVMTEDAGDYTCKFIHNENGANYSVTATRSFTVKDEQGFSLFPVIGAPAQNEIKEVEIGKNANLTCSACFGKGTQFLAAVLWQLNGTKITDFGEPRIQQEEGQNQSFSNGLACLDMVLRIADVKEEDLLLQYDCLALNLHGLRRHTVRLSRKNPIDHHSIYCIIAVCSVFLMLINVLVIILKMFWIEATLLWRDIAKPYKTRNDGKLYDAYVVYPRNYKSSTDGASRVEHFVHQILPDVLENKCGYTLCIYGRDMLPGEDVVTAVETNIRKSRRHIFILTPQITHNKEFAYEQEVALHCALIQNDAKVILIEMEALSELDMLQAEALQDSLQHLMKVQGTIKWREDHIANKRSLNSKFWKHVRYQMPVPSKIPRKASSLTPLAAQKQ

IC50 of inhibition of IL-33-dependent IFN-γ response of human NK cells (IL-33 10 ng/mL plus IL-12): 0.385 µg/mL
Substance: 97203 (antibody)
